Our source for the affinity relative to the T221A mutant values is article doi:10.1101/2025.07.28.667101.

This experiment deals with poly-C3-GFOGMR (disulfide-linked polymer of the triple-helical peptide C3-GFOGMR). Put plainly: ELISA. On the technique in general: In an ELISA, binding on a coated surface is turned into a signal by an enzyme label.

In turn, “GST-α2I domain E318W mutant (from UniProt P17301 169-366) (domain or fragment)” came in with an affinity relative to the T221A mutant of 0.0033 fold.
